Data published in publication PMC2917394.

Target: Fluorescein-labeled CD4 tail peptide (residue 403-419)
Assay: other fluorescence titration; 1.0 uM fluorescein-labeled CD4 tail peptide in PBS, stirred cuvette, 25 C, 30 min incubation with Nef-His proteins at 0.01 to 10 uM in 0.5 ml; quenching of emission (excitation 492 nm, emission 516 nm) as percent reduction, average of three measurements

Substance “Nef (C55/A)-His, untreated (natural protein)” has a percent quench of the peptide's fluorescence at 10 uM Nef-His of 10.6%.
“Nef (wt)-His, unmodified (natural protein)” showed a percent quench of the peptide's fluorescence at 10 uM Nef-His of 11.6%.
TPCK-modified Nef-His (natural protein) showed a percent quench of the peptide's fluorescence at 10 uM Nef-His of 4.9%.
“TPCK-treated Nef (C55/A)-His (natural protein)” was tested, and the percent quench of the peptide's fluorescence at 10 uM Nef-His was 9.8%.
